This passage reports dimers per aggregate, stoichiometry N and percent of molecules in dimeric form results from article PMC9846250.

A short description of series [1]: dynamic light scattering; 25°C, 90°, purified paramyosin in PBS pH 7.5 with 0.15, 0.5 and 1 M KCl; two populations by hydrodynamic radius (dimer, aggregates); number fractions calculated from the scattered intensities. The note with it: other: dynamic light scattering.
The target in series [2] is paramyosin from giant squid (Dosidicus gigas) (giant squid (Dosidicus gigas)). In words: static light scattering; Debye plot, 25°C, 90°, paramyosin 0.01-0.1 mg/ml in PBS pH 7.5 with 0.15, 0.5 and 1.0 M KCl; apparent Mw; monomers to dimer.
For series [3] the target is unchanged. Kind of series: dynamic light scattering; 25°C, 90°, purified paramyosin in PBS pH 7.5 with 0.15, 0.5 and 1 M KCl; two populations by hydrodynamic radius (dimer, aggregates); number fractions calculated from the scattered intensities.

On to “paramyosin from giant squid (Dosidicus gigas)”, for which the dimers per aggregate result in series [1] is “there are ca. 5 dimer paramyosin particles inside an aggregate”. With “paramyosin from giant squid (Dosidicus gigas) (natural protein)”, the stoichiometry N in series [2] worked out at 2. For the same substance, in series [3], the percent of molecules in dimeric form is more than 99%.

Broadly, the stoichiometry N is a count of units in the complex or per binding partner.
